# Results: the DeepSol protein solubility set
# Assay: soluble on expression in E. coli; label from the status in PepcDB or PDB records
row,Sequence,soluble on expression in E. coli
1,MSLEMEKYLSVTTLTKYLKMKFDKDPYLERVYLTGQVSNFRKRPTHQYFSLKDDHAVIQATIWSGIYQKLGFDLEEGMKINVIGRVQVYEPSGSYSIIIEKVEPDGVGALAIQFEQLKKKLTEEGLFQERFKQALPQFSKRIGVVTSRSGAVIRDIITTVSRRFPGVDILLYPTKVQGEGAAEEIARNIARANQRDDLDLLIIGRGGGSIEDLWAFNEEIVVRAIFESRLPVISSVGHETDVTLADFVADRRAATPTAAAELATPVTKLDVLAHLQNQEKRMVTAVRNVLSKKQEALKKCSQSVIFRQPERLYDGYLQRLDQLQLRLKQSLRTRISDNKQLVQARTHQLVQLSPVTKIQRYQDRLGQLDKLLGSQMALVYDAKVAEAKRLSEALLMLDTSRIVARGYAIVKKEESVVDSVESLKKKDQVTLLMRDGQVELEVKDVKTKEIEGHHHHHH,not soluble
2,MGSDKIHHHHHHMEVKPFRPLIYRKEIDGMISPPFDAITPKQEIELKRNPYNITYLTLPKGRDGVSHARMIMENWIENGVLLRAERDCIIVLKQIFSANSRRITRYGIIARVRVFPENGDVIPHERTFDEFVRDREILMEGIGSQLEPIFLVTLKNELPQYLKIITENMKEDNRYFGPENVENYVYYIYDHKEIQKISNILRNDIAIVADGHHRLQATKNIASRQSGLAREFWSYAMSYVTSIHDEGVLIGGVHRVISSRFRFDADRASKYFYVDQCDTIAGNDPVIYDGRFYCIRPRENVYDNIIDSLNDFLFSKTIGMSTIDLERDVIYTHDYAEVVNLVNSGSFSFGVIMPDWDKAHLVELLLTRKILPQKSTYFYPKIPSGISIDSISEFIVT,not soluble
3,MKIQLHKWPKSVIDRLDLVFLDAPFPCQGKSDVEGIFDPPYYEWFQFNKEFTEYTNFEKCLEYLEDRMIKLGPFDGLIGFSQGAILSGGLPGLQAKGIAFQKVPKIKFVIIIGGAKLKSAKLAENAYSSSLETLSLHFLGETDFLKPYGTQLIESYKNPVVVHHPKGHTVPRLDEKSLEKVTAFIDTLEHLVMEEDKNGEENTSKPTK,soluble
4,MAEPWGNELASAAARGDLEQLTSLLQNNVNVNAQNGFGRTALQVMKLGNPEIARRLLLRGANPDLKDRTGNAVIHDAARAGFLDTLQTLLEFQADVNIEDNEGNLPLHLAAKEGHLRVVEFLVKHTASNVGHRNHKGDTACDLARLYGRNEVVSLMQANGAGGATNLQ,soluble
5,MKDWLDEIHWNADGLVPAIAQDHETGRVLMMAWMNREALALTASENRAIYWSRSRGKLWRKGEESGHVQKLHELRLDCDADVVILMVEQVGGIACHTGRESCFYRVFENGAWKTVDPVLKDPDAIYEHAGHHHE,not soluble
6,SFHYQALPMRVSFEVGAVTKIGEELDRLGLSRALVLCTPEQKHLADLVMDHLGDRGAGIFDQARMHVPVETADRARDRARKLGADSCVVIGGGSSIGLGKAIALEHGLPIIAIPTTYAGSEMTPIWGLTRDGRKQTGRDAKVLPQSVIYDPQLTAT,not soluble
7,GPPSGKTYMGWWGHMGGPKQKGITSYAVSPYAQKPLQGIFHNAVFNSFRRFKSQFLYVLIPAGIYWYWWKNGNEYNEFLYSKAGREELERVNV,soluble
8,MGSDKIHHHHHHMKTLKFKLYQHKRNRHLKRIINAAGVIYNHCIALHKRYYRMWGNHLSCAKLQSHIAKLRKRNLFWQSLGSQAVQDICQRIEKAYQLFFKHNKKGVRPPGFKKVKKYKSFTLKQAGYKFLGSNRVKIGHRVYQFWKSRDIEGTVKTLTIKRTPLGELFMVVVVDNVSQAEIEVKTGKIAGFDFGLKTFLTCSDGTKIESPQFFKQSLNAIKKASRQHSKKLKSSSNRERARKNLVRKYEDISHRRRDWFWKLAHELTDKFDILCFETLNLKGMQRLWGRKISDLAFGEFLQILKWIAKKKNKLVVFIDQWYPSTKTCSGCGHVLEELDLSIREWRCPSCQSVNGRDENASKVICAVGASTVGLGDVSRYETAIAV,not soluble
9,MGSDKIHHHHHHVSATDTLDKTGTQTSAVRLGDLETPCLVLDADRMDRNIARLRDRIAGLGVTLRPHLKTAKSVEVARRVMATSEGPATVSTLKEAEFFADAGVRDIIYAVGIAPWKLAKVIELRKRGVDLAVVLDTVELAQAVAAASRESGMAIPALIEIDCDGHRSGVLPRDSERLLAIGKALVEGGELRGVLTHAGGSYAARGEEALRNAAEEERASVVNAAAILRDAGLPCPVVSVGSTPTAHHATDLTGVTEVRAGVFVFFDLVMTGIGICTVDDIAISVLATVIGHQREKGWILVDAGWMAMSQDRGTAKQVVNQGYGVVCKCDGTPYADLILADANQEHGIIMVRPGSDGTLPDLAIGDRVRILPNHACATGAQHRRYNVVHGTSDVVTGEWQRFGGW,not soluble
10,SNAMKFELPKLPYAVDALESTISKETIEYHYGKHHQTYVTNLNNLVEGTEHDGRNLEEIVKTSNGGIFNNAAQVFNHTFYWNCLTPNKTEASSQLKAALIETFGSVENFKEQFSKAAIATFGSGWAWLVKNTEGKLEIVTTSNAGCPLTENKKPLLTFDVWEHAYYIDYRNARPKYVEALWDIVNWQFVSEQFAD,soluble
11,MIHEVAGDGTKRSFHEKKKMDESYQRNGRTNLEHVPRLKLGKLFIFISASTNKTCLQIDNEITNN,not soluble
12,MIKKQDPLNHPESVDVAIIGAGPAGAVAAALLRQAGQQVLVLERQHFPRFSIGESLLPQSMAYLEQAGMLRAVVEAGFQYKNGAYFVHGDKTAAFDFRDKHSDGWGTTYQVERAAFDQILINCAADQGADVRFGHSVRAVQPGDAPVLEVQTESGDTYTVHARFILDASGFGRVLPRLLNLEAPTGMPLRAALFSHVQDALPAGMTDRNKICIAVHPERRDVWYWMIPLANGRSSVGCVAEASFLDIPEAEREAALRALIRAEPNIASLIGDAPFLMPVRHIGGYAANVEKLHGPGYALLGNAGEFLDPVFSSGVTIALRSADLAVRALLRQLAGETVDWQSVYDVPLRRGIDTFRAFIERWYTGELQDIIFHPQQAPGIRRMISAILAGYAWDETNPFVADPVRRLNTLHEVCRLEAVLEHHHHHH,not soluble
13,MAHHHHHHMKYTEITIDDGAYAKIFMHSIKYSCDDVCGILIGKYLSSNEKKKKCLITNYIPLFHTHILSPYLNLAFTLVENYYKDKDERIIGYFHISSDDSKNSDIENIKVCELISEKLIKNYNDAFVCLLEFSKYVNDEDNCLNIFMKNDKSNWEKGNVVISNKNKEFLKKNISNQHYLNIYDFDDHLNSMKCDFMNPDLFNNVS,not soluble
14,GSMSTKNFRVSDGDWICPDKKCGNVNFARRTSCDRCGREKTTGPI,soluble
15,MGSDKIHHHHHHMLNYSLRPENRGKNLESSWQYMFKTYPYLKPWIDSLKQNQALKDTFIYSPDHVKLHAYYVASSRPTAKTAVIVHGYTDNAIRMMMIGYLYNKKLDFNILLPDLRDTGLSGGNAIQMGWLDRKDVTQWMEVANRIYGDSTSMVVHGISMGAATTMMVSGEPQPDYVKCFVEDCGYTSVWDQFSKELKAQFGLPQFPLMYTADWLCQLEYGWGFKEASALKQVARCHLPMFFIHGDKDDYVPTWMVYKLYEAKPQPKALWIVPEADHAHSYLFNTEEYTQKVKAFVDKYIQ,not soluble
16,SGIAVSDDCVQKFNELKLGHQHRYVTFKMNASNTEVVVEHVGGPNATYEDFKSQLPERDCRYAIFDYEFQVDGGQRNKITFILWAPDSAPIKSKMMYTSTKDSIKKKLVGIQVEVQATDAAEISEDAVSERAKKDVK,soluble
17,MNKFVKSLLVAGSVAALAACSSSNNDAAGNGAAQTFGGYSVADLQQRYNTVYFGFDKYDITGEYVQILDAHAAYLNATPAAKVLVEGNTDERGTPEYNIALGQRRADAVKGYLAGKGVDAGKLGTVSYGEEKPAVLGHDEAAYSKNRRAVLAY,soluble
18,MGSDKIHHHHHHVTEPLKFQWCDRLGDLPREDWNAIAQPLATPFLEWDWLHDLEASGSVIAKAGWQPCHLVVWRGDRLVAAAPLYLKGHSYGEFVFDQQWADLAGRLGLRYYPKLLGMTPLTPAVGYRFLIAPAEDEATLTGLMLREIDRFCDNNQILSCNFLYVDPDWQPLVEAAGYSAWQHHNSVWQNRGFRTFDDYLGMFNANQRRNIKREVKSMERAGLTLTCLSGDQIPRDYFPLMYRFYSDHCDKFGWWGSKYLTRDFFDRAMHHSRHRLLFVAATPEGSDRPIAMSFCVHKGDRLYGRYWGCDHEIDNLHFNVCYYKPIEWAIANGIQSFDPGAGGSHKKRRGFPATPNWSLHRWYQPRFGQILGTWLRQVNELESQEIEAINAELPFSRPEVPLN,not soluble
19,MSLDASQGGEQQSFSWDNATVYFAITDRFHDGNPSNNQSYGRPQEDAWGQNIGTFHGGDLQGLTDKLNEGYFTELGINAIWITAPYEQVHGWVGGGSDGDFAHYAYHGYYALDYTMIDQNMGTVEDMREFVHTAHEQGIRVVLDVVMNHPGYNTIKDMHEYGFGNPGVSEHWTPGQGQNWHDVHQQINYEDAGAWRHWWGPWIRAGIAGYESCGNSEITMCLAGLPDFRTELTHSVGLPPLLETKWNQERQGGYEDWIVPAANDLRRDLGVAPADYIVKWLSAWVEEFGIDGFRVDTAKHVELSRWQQLKDAANEALWKWREENPEAPGANWTDDFWMVGEVWGHGVGRSEYFDHGFDSVINFTFQGEHGNGPAYRLDTMESTFSRYANAINTDSTFNVLSYLSQHDTQLYPRERLIDGGTYLMLLPGGVQVFYGDETARPFGPTGSDPHQGTRSSMNWDSVNEEVLHHWQKMGQFRSNHLAVGAGEHRQIAASPYTFSRTYVEGDVDDRVVVVVGASGETTIDVSSVFSDGQQVRDFYTGNVTVVENGHVTFPAHRNGVILIERAGDEGHHHHHH,soluble
20,SNAMQNRWAETKFDSDIDEVVYGSRLIGSDPDLVLHGGGNTSVKTTERDHAGRIISVLRVKNSGSNLGTIDSRGFTGIRMDDALAAAKIDKMTDEAMVDYLKKSMVNPSEPSPSVETFLHAFLPYKFVMHSHADAILSITNTDLPSDQIAKILGNVVVLPYIPPGFTLAKEVMNCFKKGIDGIVLRKHGLLTFGDTGKEAYDRHINIVSRAENFIREKTDGK,soluble
21,MEQKNVRNFCIIAHVDHGKSTLADRLLEYTGAISEREKREQLLDTLDVERERGITVKMQAVRMFYKAKDGNTYKLHLIDTPGHVDFSYEVSRALAACEGALLLIDASQGIEAQTVANFWKAVEQDLVIIPVINKIDLPSADVDRVKKQIEEVLGLDPEEAILASAKEGIGIEEILEAIVNRIPPPKGDPQKPLKALIFDSYYDPYRGAVAFVRIFDGEVKPGDKIMLMSTGKEYEVTEVGAQTPKMTKFDKLSAGDVGYIAASIKDVRDIRIGDTITHAKNPTKEPVPGFQPAKPMVYAGIYPAEDTTYEELRDALEKYAINDAAIVYEPESSPALGMGFRVGFLGLLHMEIVQERLEREYGVKIITTAPNVIYRVKKKFTDEVIEVRNPMDFPDNAGLIEYVEEPFVLVTIITPKEYVGPIIQLCQEKRGIQKNMTYLDPNTVYLEYEMPLSEIIVDFHDKIKSISRGFASYDYEFIGYRPSDLIKLTVLINKKPVDALSFIVHADRAQKFARRVAEKLRETIPRQLFEVHIQVAKGGKVIASERIKPLRANVTAKCYGGDVTRKKKLLENQKEGKKRMKQFGKVQLPQEAFLSVLKVE,soluble
22,QQFHWVNDGYADFDGFLAALSSRKRKAIRKERAQAQGFGGQIRELTGGDLRPEHWDAFWRFYQDTGARKWGSPYLTRAFFDIAHQTMADDMVLVLAERDGIPVAGALNFIGREALFGRYWGCVEHHPCLHFELCYYRAIDWAIAHGLARVEAGAQGEHKLARG,not soluble
